From publication PMC5111884, “NPAS1-ARNT and NPAS3-ARNT crystal structures implicate the bHLH-PAS family as multi-ligand binding transcription factors”

What was measured:
NPAS1;ARNT = NPAS1;ARNT (mouse;mouse?, UniProt A2RSH6;P53762 43-423;82-464, |); assay: fluorescence anisotropy; FP: 2 nM DNA, 20 mM Tris pH 8.0, 50 mM NaCl, 10 mM DTT, 30 min, temperature not stated (DNA annealed in 10 mM Tris pH 7.5, 1 mM EDTA, 2 mM MgCl2); settings: protein: recombinant;recombinant; tags: vector pSJ2; copies: 1;1; blunt
NPAS1;ARNT, sequence (chain, as listed by the source |, chain 1 of 2): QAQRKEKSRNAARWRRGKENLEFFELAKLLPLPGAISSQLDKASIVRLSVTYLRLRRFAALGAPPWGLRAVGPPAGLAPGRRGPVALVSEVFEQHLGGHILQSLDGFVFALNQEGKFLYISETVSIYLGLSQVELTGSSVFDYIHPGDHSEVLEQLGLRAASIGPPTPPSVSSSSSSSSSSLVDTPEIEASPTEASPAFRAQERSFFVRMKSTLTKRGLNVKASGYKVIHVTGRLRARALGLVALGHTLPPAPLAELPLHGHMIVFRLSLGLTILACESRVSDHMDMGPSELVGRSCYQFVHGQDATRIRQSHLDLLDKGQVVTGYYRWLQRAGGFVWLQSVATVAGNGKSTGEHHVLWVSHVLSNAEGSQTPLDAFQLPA
NPAS1;ARNT, sequence (P53762 82-464, chain 2 of 2): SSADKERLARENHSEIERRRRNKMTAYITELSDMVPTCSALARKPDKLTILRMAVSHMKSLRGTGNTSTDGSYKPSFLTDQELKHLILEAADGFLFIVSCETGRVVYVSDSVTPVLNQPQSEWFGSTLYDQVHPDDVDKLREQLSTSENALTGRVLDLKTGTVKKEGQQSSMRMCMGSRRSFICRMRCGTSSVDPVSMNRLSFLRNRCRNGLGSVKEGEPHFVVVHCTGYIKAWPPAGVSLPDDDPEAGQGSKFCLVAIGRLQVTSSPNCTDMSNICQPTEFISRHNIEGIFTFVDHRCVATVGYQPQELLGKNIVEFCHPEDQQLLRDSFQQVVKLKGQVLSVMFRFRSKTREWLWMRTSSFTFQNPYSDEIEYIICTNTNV

NPAS3;ARNT = NPAS3;ARNT (mouse;mouse?, UniProt Q9QZQ0;P53762 56-455;82-464, |); assay: as above; settings: protein: recombinant;recombinant; tags: vector pSJ2; copies: 1;1; blunt
NPAS3;ARNT, sequence (Q9QZQ0 56-455, chain 1 of 2): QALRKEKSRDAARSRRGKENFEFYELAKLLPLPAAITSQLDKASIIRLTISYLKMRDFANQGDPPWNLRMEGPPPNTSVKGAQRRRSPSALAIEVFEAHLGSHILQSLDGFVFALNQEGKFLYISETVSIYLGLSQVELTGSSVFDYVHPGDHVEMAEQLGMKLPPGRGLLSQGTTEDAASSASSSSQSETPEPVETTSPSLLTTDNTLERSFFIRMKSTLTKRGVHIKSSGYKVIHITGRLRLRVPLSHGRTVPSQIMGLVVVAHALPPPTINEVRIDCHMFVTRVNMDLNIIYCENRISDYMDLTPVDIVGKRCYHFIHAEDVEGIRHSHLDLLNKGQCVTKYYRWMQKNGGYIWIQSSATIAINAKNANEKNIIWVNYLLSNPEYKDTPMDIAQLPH
NPAS3;ARNT, sequence (P53762 82-464, chain 2 of 2): as the sequence (P53762 82-464, chain 2 of 2) above

B1: HRE 21-mer (FP probe) (dsDNA)
DNA 1: GGCTGCGTACGTGCGGGTCGT
DNA 2: ACGACCCGCACGTACGCAGCC
NPAS1;ARNT
  Kd: 16.3 ± 1.1 nM
NPAS3;ARNT
  Kd: 17.5 ± 1.1 nM
